We go through one molecule from patent US20240409645A1 (published 2024).

Usually EC50 stands for the concentration that produces a half-maximal response. Higher therefore signals weaker potency.

For this assay, the target named is T1, human IL-2 receptor IL-2Rα/IL-2Rβ/γc on HEK-Blue IL-2 cells (UniProt P01589 22-272; P14784 27-551; P31785 23-369).
T1 chain 1: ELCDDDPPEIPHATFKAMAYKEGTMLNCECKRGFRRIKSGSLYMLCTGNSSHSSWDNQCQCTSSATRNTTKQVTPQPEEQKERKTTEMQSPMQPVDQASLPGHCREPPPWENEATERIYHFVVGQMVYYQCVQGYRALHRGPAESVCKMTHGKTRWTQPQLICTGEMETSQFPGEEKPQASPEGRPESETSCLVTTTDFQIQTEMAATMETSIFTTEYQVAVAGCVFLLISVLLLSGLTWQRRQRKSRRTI
T1 chain 2: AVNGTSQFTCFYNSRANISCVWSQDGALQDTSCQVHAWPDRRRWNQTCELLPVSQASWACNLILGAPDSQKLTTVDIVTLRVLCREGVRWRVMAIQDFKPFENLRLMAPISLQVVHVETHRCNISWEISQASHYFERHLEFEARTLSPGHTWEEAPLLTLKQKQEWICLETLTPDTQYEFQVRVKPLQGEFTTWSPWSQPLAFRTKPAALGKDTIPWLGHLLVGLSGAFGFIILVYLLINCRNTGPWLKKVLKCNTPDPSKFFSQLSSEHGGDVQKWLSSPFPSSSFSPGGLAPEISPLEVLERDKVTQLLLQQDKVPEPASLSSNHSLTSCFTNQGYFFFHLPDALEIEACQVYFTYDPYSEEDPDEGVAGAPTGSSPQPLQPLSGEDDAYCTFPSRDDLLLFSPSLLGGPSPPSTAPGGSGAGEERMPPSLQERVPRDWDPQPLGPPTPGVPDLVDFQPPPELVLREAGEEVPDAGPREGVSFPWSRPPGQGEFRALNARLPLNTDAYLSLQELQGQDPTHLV
T1 chain 3: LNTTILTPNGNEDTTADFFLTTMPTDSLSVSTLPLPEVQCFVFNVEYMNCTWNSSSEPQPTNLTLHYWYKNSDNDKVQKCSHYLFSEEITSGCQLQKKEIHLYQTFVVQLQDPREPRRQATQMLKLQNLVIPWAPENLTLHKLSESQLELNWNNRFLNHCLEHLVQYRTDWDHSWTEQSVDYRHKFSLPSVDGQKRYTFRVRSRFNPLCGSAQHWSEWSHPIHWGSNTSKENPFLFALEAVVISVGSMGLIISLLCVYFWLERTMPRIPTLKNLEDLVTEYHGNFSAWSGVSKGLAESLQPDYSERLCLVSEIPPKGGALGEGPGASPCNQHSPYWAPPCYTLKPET
The experiment in a line: FACS cell binding; monovalent.

B1: 12-MP05B12 VHH-hFc, monospecific monovalent (Fc fusion)
VHH: QVQLVESGGGLVQAGGSLRLSCAASGFTFDGYAIGWFRQAPGKEREGVSYITGSDGSTYYADSVKGRFTISSNNAKNTVYLHMNSLKPDDAAVYYCAIDRLGSRGAYVPIWWRSSDMDLWGKGTLVTVSS
Take B1: a half-maximal effect (EC50) was put at 8.5 nM.
